Molecular target: H3K9ac nucleosome with 147 bp DNA

Km for the nucleosome substrate in the Western blot-based deacylation assay: 0.088 µM
Substance: G60A SIRT6 (from UniProt Q8N6T7 2-355) (enzyme)

Reference: PMC12051053
